Experimental data taken from patent US20260098059A1 (ENDOMET BIOSCIENCES, published 2026).
Values joined by “and” are separate entries in the source; they are usually repeats but may differ in a detail not shown here. Equal values may be shown once. [ ]: non-standard residue; d: D form. The star is where a group is joined. NMeW = CN[C@@H](Cc1c[nH]c2ccccc12)C(=O)O; Palmitoyl = CCCCCCCCCCCCCCCC(=O)*; αMeV = CC(C)[C@](C)(N)C(=O)O; αMeS = C[C@](N)(CO)C(=O)O; GABA = NCCCC(=O)O; βAla = NCCC(=O)O

T1: β-catenin (UniProt P35222 134-665, limits assumed, biotinylated in the SPR and plate assays)
T1 sequence (looked up): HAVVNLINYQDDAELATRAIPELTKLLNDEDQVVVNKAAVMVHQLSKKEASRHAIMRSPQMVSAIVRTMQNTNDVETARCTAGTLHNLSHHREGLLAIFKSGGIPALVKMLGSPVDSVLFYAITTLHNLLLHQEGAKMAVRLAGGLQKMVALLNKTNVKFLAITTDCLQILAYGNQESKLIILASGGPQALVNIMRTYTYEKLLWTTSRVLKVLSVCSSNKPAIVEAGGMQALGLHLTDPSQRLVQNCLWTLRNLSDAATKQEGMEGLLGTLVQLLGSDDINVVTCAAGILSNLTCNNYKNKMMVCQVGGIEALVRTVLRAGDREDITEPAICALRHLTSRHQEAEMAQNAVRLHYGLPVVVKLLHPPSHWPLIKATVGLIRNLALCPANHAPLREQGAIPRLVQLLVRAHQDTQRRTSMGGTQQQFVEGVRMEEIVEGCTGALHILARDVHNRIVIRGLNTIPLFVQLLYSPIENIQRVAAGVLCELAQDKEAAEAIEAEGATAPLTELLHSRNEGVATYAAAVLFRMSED


target: T1, β-catenin; assay: cell-based or functional assay

Row | Binder | Wnt Reporter EC50
1 | H-MSRMWFLISFWG-OH [SEQ ID NO: 41] | ≤ 7.5 µM
2 | H-MNRMWFLISFWG-OH [SEQ ID NO: 61] | > 7.5 µM and ≤ 15 µM
3 | H-MSRMWFLISSWG-OH [SEQ ID NO: 54] | > 15 µM and ≤ 22.5 µM
4 | MSRMAFLISFWG (HELM PEPTIDE1{M.S.R.M.[meA].F.L.I.S.F.W.G}$$$$V2.0; SMILES CC[C@H](C)[C@H](NC(=O)[C@H](CC(C)C)NC(=O)[C@H](Cc1ccccc1)NC(=O)[C@H](C)N(C)C(=O)[C@H](CCSC)NC(=O)[C@H](CCCNC(=N)N)NC(=O)[C@H](CO)NC(=O)[C@@H](N)CCSC)C(=O)N[C@@H](CO)C(=O)N[C@@H](Cc1ccccc1)C(=O)N[C@@H](Cc1c[nH]c2ccccc12)C(=O)NCC(=O)O) [SEQ ID NO: 50] | > 30 µM
5 | H-MSRMWLLISFWG-OH [SEQ ID NO: 60] | > 7.5 µM and ≤ 15 µM
6 | H-MSRTWFLISFWG-OH [SEQ ID NO: 48] | > 7.5 µM and ≤ 15 µM
7 | H-MSRMWFLFSFWG-OH [SEQ ID NO: 63] | ≤ 7.5 µM
8 | H-MSRMWFLVSFWG-OH [SEQ ID NO: 56] | > 7.5 µM and ≤ 15 µM
9 | H-MSRIWFLISFWG-OH [SEQ ID NO: 55] | ≤ 7.5 µM
10 | H-MSRKWFLISFWG-OH [SEQ ID NO: 59] | > 30 µM
11 | H-MSRMWFLTSFWG-OH [SEQ ID NO: 62] | > 30 µM
12 | H-MSRMLFLISFWG-OH [SEQ ID NO: 52] | > 15 µM and ≤ 22.5 µM

Now from value to binder:

Row | Wnt Reporter EC50 | Binder
13 | > 30 µM | AEEDPQTILDDHLSRVLK (HELM PEPTIDE1{[ac].[bAla].E.E.D.P.Q.T.I.L.D.D.H.L.S.R.V.L.K.[am]}$$$$V2.0; SMILES CC[C@H](C)[C@H](NC(=O)[C@@H](NC(=O)[C@H](CCC(N)=O)NC(=O)[C@@H]1CCCN1C(=O)[C@H](CC(=O)O)NC(=O)[C@H](CCC(=O)O)NC(=O)[C@H](CCC(=O)O)NC(=O)CCNC(C)=O)[C@@H](C)O)C(=O)N[C@@H](CC(C)C)C(=O)N[C@@H](CC(=O)O)C(=O)N[C@@H](CC(=O)O)C(=O)N[C@@H](Cc1c[nH]cn1)C(=O)N[C@@H](CC(C)C)C(=O)N[C@@H](CO)C(=O)N[C@@H](CCCNC(=N)N)C(=O)N[C@H](C(=O)N[C@@H](CC(C)C)C(=O)N[C@@H](CCCCN)C(N)=O)C(C)C) [SEQ ID NO: 412]
14 | ≤ 7.5 µM | WAESILKEHVQRVWG (HELM PEPTIDE1{[CCCCCCCCCCCC(=O)[*:2]].W.[meA].E.S.I.L.K.E.H.V.Q.R.V.W.G.[am]}$PEPTIDE1,PEPTIDE1,4:R3-8:R3$$$V2.0; SMILES CCCCCCCCCCCC(=O)N[C@@H](Cc1c[nH]c2ccccc12)C(=O)N(C)[C@@H](C)C(=O)N[C@H]1CCC(=O)NCCCC[C@@H](C(=O)N[C@@H](CCC(=O)O)C(=O)N[C@@H](Cc2c[nH]cn2)C(=O)N[C@H](C(=O)N[C@@H](CCC(N)=O)C(=O)N[C@@H](CCCNC(=N)N)C(=O)N[C@H](C(=O)N[C@@H](Cc2c[nH]c3ccccc23)C(=O)NCC(N)=O)C(C)C)C(C)C)NC(=O)[C@H](CC(C)C)NC(=O)[C@H]([C@@H](C)CC)NC(=O)[C@H](CO)NC1=O) [SEQ ID NO: 451]
15 | > 7.5 µM and ≤ 15 µM | {Palmitoyl-GABA}-W[NMeW]E[αMeS]ILDEH[αMeV]QRVW-OH [SEQ ID NO: 400]
16 | > 7.5 µM and ≤ 15 µM | Palmitoyl-[βAla]W[NMeW]E[αMeS]ILDEH[αMeV]QRVW-OH (SMILES CCCCCCCCCCCCCCCC(=O)NCCC(=O)N[C@@H](Cc1c[nH]c2ccccc12)C(=O)N(C)[C@@H](Cc1c[nH]c2ccccc12)C(=O)N[C@@H](CCC(=O)O)C(=O)N[C@@](C)(CO)C(=O)N[C@H](C(=O)N[C@@H](CC(C)C)C(=O)N[C@@H](CC(=O)O)C(=O)N[C@@H](CCC(=O)O)C(=O)N[C@@H](Cc1c[nH]cn1)C(=O)N[C@](C)(C(=O)N[C@@H](CCC(N)=O)C(=O)N[C@@H](CCCNC(=N)N)C(=O)N[C@H](C(=O)N[C@@H](Cc1c[nH]c2ccccc12)C(=O)O)C(C)C)C(C)C)[C@@H](C)CC) [SEQ ID NO: 399]
17 | > 30 µM | H-MSRMWFLNSFWG-OH [SEQ ID NO: 70]
18 | > 7.5 µM and ≤ 15 µM | H-MSRMWFLISLWG-OH [SEQ ID NO: 68]
19 | ≤ 7.5 µM | H-MGRMWFLISFWG-OH [SEQ ID NO: 67]
20 | > 7.5 µM and ≤ 15 µM | H-MSRVWFLISFWG-OH [SEQ ID NO: 64]
21 | > 30 µM | H-MSRMWFPISFWG-OH [SEQ ID NO: 65]
22 | ≤ 7.5 µM | WAQKILNDHGQAV (HELM PEPTIDE1{[CCCCCCCCCCCCCCCC(=O)[*:2]].W.[meA].Q.K.I.L.N.D.H.[O=C([C@@H](N[*:1])C1CCCCC1)[*:2]].Q.A.V.[am]}$PEPTIDE1,PEPTIDE1,5:R3-9:R3$$$V2.0; SMILES CCCCCCCCCCCCCCCC(=O)N[C@@H](Cc1c[nH]c2ccccc12)C(=O)N(C)[C@@H](C)C(=O)N[C@@H](CCC(N)=O)C(=O)N[C@H]1CCCCNC(=O)C[C@@H](C(=O)N[C@@H](Cc2c[nH]cn2)C(=O)N[C@H](C(=O)N[C@@H](CCC(N)=O)C(=O)N[C@@H](C)C(=O)N[C@H](C(N)=O)C(C)C)C2CCCCC2)NC(=O)[C@H](CC(N)=O)NC(=O)[C@H](CC(C)C)NC(=O)[C@H]([C@@H](C)CC)NC1=O) [SEQ ID NO: 454]
23 | ≤ 7.5 µM | WAQKILNDHGQAV (HELM PEPTIDE1{[CCCCCCCCCCCC(=O)[*:2]].W.[meA].Q.K.I.L.N.D.H.[O=C([C@@H](N[*:1])C1CCCCC1)[*:2]].Q.A.V.[am]}$PEPTIDE1,PEPTIDE1,5:R3-9:R3$$$V2.0; SMILES CCCCCCCCCCCC(=O)N[C@@H](Cc1c[nH]c2ccccc12)C(=O)N(C)[C@@H](C)C(=O)N[C@@H](CCC(N)=O)C(=O)N[C@H]1CCCCNC(=O)C[C@@H](C(=O)N[C@@H](Cc2c[nH]cn2)C(=O)N[C@H](C(=O)N[C@@H](CCC(N)=O)C(=O)N[C@@H](C)C(=O)N[C@H](C(N)=O)C(C)C)C2CCCCC2)NC(=O)[C@H](CC(N)=O)NC(=O)[C@H](CC(C)C)NC(=O)[C@H]([C@@H](C)CC)NC1=O) [SEQ ID NO: 453]
